The values below come from publication doi:10.1101/2023.12.18.572097.

The target in experiment [1] is E. coli type I Zorya ZorB, wild type (EcZorB) (E. coli). Put plainly: cryo-EM structure.
Experiment [2] has as its target E. coli type I Zorya ZorA, wild type (EcZorA) (E. coli). In words: cryo-EM structure.

As to “E. coli type I Zorya ZorB, wild type (EcZorB) (natural protein)”, the stoichiometry N in experiment [1] was 2.
“E. coli type I Zorya ZorA, wild type (EcZorA) (natural protein)” registered a stoichiometry N in experiment [2] of 5.
